Literature values in publication PMC8495453.

Molecular target: Galectin-3 (Homo sapiens) (UniProt P17931)
Sequence (P17931 2-250): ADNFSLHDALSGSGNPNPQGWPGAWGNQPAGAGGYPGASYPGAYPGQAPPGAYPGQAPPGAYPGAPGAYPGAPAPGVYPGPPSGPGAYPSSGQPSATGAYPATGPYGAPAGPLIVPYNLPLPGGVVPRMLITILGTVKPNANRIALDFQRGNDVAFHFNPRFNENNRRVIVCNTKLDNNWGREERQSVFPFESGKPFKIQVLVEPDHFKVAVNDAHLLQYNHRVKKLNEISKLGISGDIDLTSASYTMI

LAMP1 29-382, sequence (P11279 29-382): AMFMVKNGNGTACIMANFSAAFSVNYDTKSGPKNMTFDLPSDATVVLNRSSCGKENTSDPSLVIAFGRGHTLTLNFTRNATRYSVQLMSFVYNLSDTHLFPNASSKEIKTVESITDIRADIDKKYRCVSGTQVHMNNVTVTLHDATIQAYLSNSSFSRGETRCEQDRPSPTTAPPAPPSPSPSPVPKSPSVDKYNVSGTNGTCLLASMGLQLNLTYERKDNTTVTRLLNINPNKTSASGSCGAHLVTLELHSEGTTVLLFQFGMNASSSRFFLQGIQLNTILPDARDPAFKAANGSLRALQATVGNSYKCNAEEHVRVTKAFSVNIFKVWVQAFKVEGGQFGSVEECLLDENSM

LAMP1 29-382 (from UniProt P11279)
Kd: < 25 nM
